Experimental data as given in paper PMC4496297.

Tests used:
[1] = target: FimC-FimH (Escherichia coli) (UniProt P31697); assay: SPR; details: cited from earlier work
[2] = target: FimC_(Q19C)-FimH chaperone-adhesin complex, FimC labeled with coumarin maleimide (CPM) (Escherichia coli) (UniProt P31697); assay: other fluorescence titration
[3] = target: FimCFimH, where FimC was labeled with the thiol-reactive probe coumarin maleimide (CPM) at Q19C, T51; assay: other fluorescence titration

Substance | Kd [2] [nM] | other results
FimD (from UniProt P30130) |  | Kd [1]: 9.1 nM
FimD_(ΔC1ΔC2) (purified, His-tag removed) (from UniProt P30130 46-878) (domain or fragment) | 389 | 
WT FimD usher (purified, His-tag removed) (from UniProt P30130 46-878) (natural protein) |  | Kd [3]: 9.5 nM

More lines, main results first:

Kd [2] [nM] | Substance | other results
40.8 | FimD_(ΔNΔplug) (purified, His-tag removed) (from UniProt P30130 46-878) (domain or fragment) | 
213 | FimDΔC2 (purified, His-tag removed) (from UniProt P30130 46-878) (domain or fragment) | 
> 1200 | FimDΔN (purified, His-tag removed) (from UniProt P30130 46-878) (domain or fragment) | 
